Measured values from article PMC12583694, “RNF114 and RNF166 exemplify reader-writer E3 ligases that extend K11 polyubiquitin onto sites of MARUbylation” (The EMBO Journal, 2025).
Where a chain is given by its changes, count along the chain named. In names and notes the source's numbering stands.

B1: RNF114 (wild type, full-length) (enzyme, human, UniProt Q9Y508 1-228, looked up)
chain: MAAQQRDCGGAAQLAGPAAEADPLGRFTCPVCLEVYEKPVQVPCGHVFCSACLQECLKPKKPVCGVCRSALAPGVRAVELERQIESTETSCHGCRKNFFLSKIRSHVATCSKYQNYIMEGVKATIKDASLQPRNVPNRYTFPCPYCPEKNFDQEGLVEHCKLFHSTDTKSVVCPICASMPWGDPNYRSANFREHIQRRHRFSYDTFVDYDVDEEDMMNQVLQRSIIDQ
notes: RNF114, human, RING-type E3 ubiquitin ligase; synthesised DNA cloned into pOPIN-B (N-terminal His-3C fusion); The methods describe no cleavage of the His-3C tag; also called WT RNF114; source: E. coli Rosetta, purified (Cobalt resin, gel filtration)
B2: RNF114 R198E (enzyme, human, UniProt Q9Y508 1-228, looked up)
chain: B1 chain with R198E
notes: Made by site-directed mutagenesis of pOPINB-RNF114 WT; no tag cleavage described; source: E. coli Rosetta, purified (Cobalt resin, gel filtration)
B3: RNF114 F206E (enzyme, human, UniProt Q9Y508 1-228, looked up)
chain: B1 chain with F206E
notes: RNF114, human, with a mutation in the linker between Di19 and UIM (modelled contact with the Ub I36 patch); Made by site-directed mutagenesis of pOPINB-RNF114 WT; no tag cleavage described; source: E. coli Rosetta, purified (Cobalt resin, gel filtration)
B4: RNF166 (enzyme, human, UniProt Q96A37 1-237, looked up)
chain: MAMFRSLVASAQQRQPPAGPAGGDSGLEAQYTCPICLEVYHRPVAIGSCGHTFCGECLQPCLQVPSPLCPLCRLPFDPKKVDKATHVEKQLSSYKAPCRGCNKKVTLAKMRVHISSCLKVQEQMANCPKFVPVVPTSQPIPSNIPNRSTFACPYCGARNLDQQELVKHCVESHRSDPNRVVCPICSAMPWGDPSYKSANFLQHLLHRHKFSYDTFVDYSIDEEAAFQAALALSLSEN
notes: RNF166, human, RING-type E3 ubiquitin ligase; synthesised DNA cloned into pOPIN-B (N-terminal His-3C fusion); No tag cleavage described; source: E. coli Rosetta, purified (Cobalt resin, gel filtration)
B5: AF1521 macrodomain (natural protein, UniProt O28751 1-192, looked up)
chain: MEVLFEAKVGDITLKLAQGDITQYPAKAIVNAANKRLEHGGGVAYAIAKACAGDAGLYTEISKKAMREQFGRDYIDHGEVVVTPAMNLEERGIKYVFHTVGPICSGMWSEELKEKLYKAFLGPLEKAEEMGVESIAFPAVSAGIYGCDLEKVVETFLEAVKNFKGSAVKEVALVIYDRKSAEVALKVFERSL
notes: plasmid GST-AF1521 (gift from M. Nielsen); also called GST-AF1521; source: purified as previously reported (Kamata et al, 2019)
B6: RNF138 (enzyme, human, UniProt Q8WVD3 1-245, looked up)
chain: MAEDLSAATSYTEDDFYCPVCQEVLKTPVRTTACQHVFCRKCFLTAMRESGAHCPLCRGNVTRRERACPERALDLENIMRKFSGSCRCCAKQIKFYRMRHHYKSCKKYQDEYGVSSIIPNFQISQDSVGNSNRSETSTSDNTETYQENTSSSGHPTFKCPLCQESNFTRQRLLDHCNSNHLFQIVPVTCPICVSLPWGDPSQITRNFVSHLNQRHQFDYGEFVNLQLDEETQYQTAVEESFQVNI
notes: RNF138, human, RING-type E3 ubiquitin ligase; synthesised DNA cloned into pOPIN-S3C (N-terminal His-SUMO-3C fusion); No tag cleavage described; source: E. coli Rosetta, purified (Cobalt resin, gel filtration; buffers at pH 8.0)
B7: RNF114 ΔUIM^ext (domain or fragment, human, UniProt Q9Y508 1-200, looked up)
chain: MAAQQRDCGGAAQLAGPAAEADPLGRFTCPVCLEVYEKPVQVPCGHVFCSACLQECLKPKKPVCGVCRSALAPGVRAVELERQIESTETSCHGCRKNFFLSKIRSHVATCSKYQNYIMEGVKATIKDASLQPRNVPNRYTFPCPYCPEKNFDQEGLVEHCKLFHSTDTKSVVCPICASMPWGDPNYRSANFREHIQRRHR
notes: RNF114, human, truncated version that ends immediately after the Di19 domain at residue 200; No tag cleavage described; source: E. coli Rosetta, purified (Cobalt resin, gel filtration)
B8: RNF114 M-UBD construct (residues 137–228) (domain or fragment)
chain: not shown
notes: RNF114, human, residues 137-228 (RING domain and associated disordered regions removed); No tag cleavage described; also called tandem Di19-UIM module; source: E. coli Rosetta, purified (Cobalt resin, gel filtration)

Columns and labels:
Ub-Lys-TAMRA = molecular target: T1, Ub-Lys-TAMRA (UniProt P0CG47 1-76, Ub is isopeptide-linked to a TAMRA-labeled Lys-Gly dipeptide (at the Ub C-terminus)); assay: fluorescence polarisation; TAMRA-labelled substrate fixed, unlabelled protein at a range of concentrations, mixed 1:1; 22 °C; 25 mM HEPES pH 7.4, 150 mM NaCl, 0.1 mg/mL BSA, 1 mM TCEP; 10 µL in 384-well plate; Kd by nonlinear regression of duplicate datasets (GraphPad Prism 10); conditions: both partners purified
T1 construct: ubiquitin (the cut product of the polyubiquitin precursor); source: generated previously (Geurink et al, 2012)

[1] = molecular target: T2, Ub-ADPr-TAMRA (fluorescent ester-linked Ub-ADPr conjugate) (human, UniProt P0CG47 1-76, C-terminus ester-linked to ADP-ribose (OP-ADPr, compound 8) that carries TAMRA (CuAAC with TAMRA-azide)); assay: as above; conditions: both partners purified
T2 construct: ubiquitin, human (pET17b-Ub), wild type; observed mass of Ub 8564.4 Da; also called MARUbe probe; source: Ub purified as previously reported (Warren et al, 2023); coupled to OP-ADPr with DTX2, purified (Resource S), clicked to TAMRA-azide, purified (size exclusion)

| Binder | Kd (Ub-Lys-TAMRA) [µM] | Kd [1] [µM] | binding result (Ub-Lys-TAMRA) | binding result [1] |
| --- | --- | --- | --- | --- |
| B1 | ~20 | 12.8 | – | – |
| B2 | – | – | binds | binds |
| B3 | – | – | binds | binds |
| B4 | – | – | – | binds |
| B5 | – | – | binds | binds |
| B6 | – | – | – | binds |
| B7 | – | – | – | binds |
| B8 | – | – | binds | – |
